This is an account of results in US20110165145A1 (published 2011).

In experiment [1] the target is T1, insulin-like growth factor II (IGF-II), amino acids 1-67 (human, UniProt P01344 25-91).
T1 construct: recombinant; also called IGF-II (67aa); IGF2
Nature of the experiment: SPR, IgG on Protein G', then ligand, then BP; competitor BP2; 0 = no significant competition, 5 = competes strongly. How it is done:
(§1) BIACORE® T100 and a CM5 chip coated with Protein G were utilised to set up following assay. Approximately 1000 RU of Protein G′ was immobilized on a CM5 chip using standard amine chemistry immobilization method.
(§2) 4) Protein G′ surface was finally regenerated by injection of 10 mM Glycine pH 1.5-injected at 30 ul/min for 60 sec.
(In general: SPR reads the build-up and loss of mass on a sensor chip optically.)

The target in experiment [2] is T2, IGF-IIE (amino acids 1-104 of pro-IGF-II) (human, UniProt P01344 25-128).
T2 construct: Biotinylated in the selections; also called IGF-IIE (104aa)
The description is as above. How it is done:
as §1, §2

Experiment [3] addresses T1, insulin-like growth factor II (IGF-II), …. Put plainly: SPR, IgG on Protein G', then ligand, then BP; competitor BP4; 0 = no significant competition, 5 = competes strongly. How it is done: as §1, §2
Experiment [4] deals with T2, IGF-IIE (amino acids 1-104 of …). Described as above. How it is done: as §1, §2
Experiment [5] has as its target T1, insulin-like growth factor II (IGF-II), …. Nature of the experiment: cell-based or functional assay.
Experiment [6] has as its target T2, IGF-IIE (amino acids 1-104 of …). Put plainly: cell-based or functional assay.
Experiment [7] concerns the target insulin-like growth factor I (IGF-I) (UniProt P05019 49-118). Put plainly: cell-based or functional assay.
The target of experiment [8] is T1, insulin-like growth factor II (IGF-II), …. Put plainly: SPR (Flexchip), Fab, 1st of duplicate.
The target of experiment [9] is T2, IGF-IIE (amino acids 1-104 of …). Nature of the experiment: SPR (Flexchip), Fab, 1st of duplicate.
For experiment [10] the target is unchanged. Nature of the experiment: competition SPR (BIACORE T100), affinity in solution, free ligand read on huIR-A ECD; measurement 2. As for the experimental part: (§3) Competition SPR (BIACORE®) was performed under conditions of partially mass-transport limited conditions according to previously described methodology (Nieba et al., 1996). Approximately 16,700 relative response units (RU) of huIR-A (-exon11) ectodomain was coupled by standard amine chemistry to a BIACORE® CM5 chip sensor. Uncoated flow-cell surface was used as a reference. […] Regeneration of the surface was achieved by injection of 30 ul NaCltrate/NaCl pH 4.5. […] These Req estimates were subsequently plotted against total concentrations of Fab used and the resulting inhibition curve was utilised to calculate dissociation constant (KD).

For experiment [11] the target is unchanged. Nature of the experiment: competition SPR (BIACORE T100), affinity in solution, free ligand read on huIR-A ECD; measurement 1. How it is done:
as §3

The target in experiment [12] is T1, insulin-like growth factor II (IGF-II), …. Nature of the experiment: SPR (Flexchip), Fab, 2nd of duplicate.
Experiment [13] deals with T2, IGF-IIE (amino acids 1-104 of …). Nature of the experiment: SPR (Flexchip), Fab, 2nd of duplicate.
Experiment [14] addresses T1, insulin-like growth factor II (IGF-II), …. Put plainly: competition SPR (BIACORE T100), affinity in solution, free ligand read on huIR-A ECD; measurement 1. How it is done: as §3

Chain of insulin-like growth factor I (IGF-I) (P05019 49-118 limits assumed): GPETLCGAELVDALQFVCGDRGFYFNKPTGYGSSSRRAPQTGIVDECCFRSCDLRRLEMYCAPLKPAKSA
T1 sequence (P01344 25-91): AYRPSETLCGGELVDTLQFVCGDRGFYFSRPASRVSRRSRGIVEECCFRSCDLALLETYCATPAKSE
T2 sequence (P01344 25-128): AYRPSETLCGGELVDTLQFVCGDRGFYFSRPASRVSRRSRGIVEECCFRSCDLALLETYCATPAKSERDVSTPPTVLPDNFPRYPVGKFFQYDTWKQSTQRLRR

B1: M0072-C06 IgG (parental) (antibody, V domains shown)
VH: EVQLLESGGGLVQPGGSLRLSCAASGFTFSAYIMTWVRQAPGKGLEWVSSISPSGGYTVYADSVKGRFTISRDNSKNTLYLQMNSLRAEDTAVYYCARDSGFGDPFDYWGQGTMVTVSS
VL: DIQMTQSPSSLSASVGDRVTITCRASQSIRNYLNWYQQKPGKAPKLLIYAASKLEDGVPSRFSGSGTGTDFTLTIRSLQPEDFASYFCQQSYSSPGITFGPGTKVEIK
Consider B1, for which the competition score worked out at 3 score 0-5 in experiment [1], 2 score 0-5 in [2], 2 score 0-5 in [3] and 1 score 0-5 in [4].

B2: M0068-E03 Fab (Fab, V domains shown)
VH: EVQLLESGGGLVQPGGSLRLSCAASGFTFSEYVMAWVRQAPGKGLEWVSSIVSSGGYTKYADSVKGRFTISRDNSKNTLYLQMNSLRAEDTAVYYCAKDMTYSGDAFDVWGQGTMVTVSS
VL: DIQMTQSPSSLSASVGDRVTITCRASQSINTYLNWYQQKPGKAPKVLIHAASTLESGVPSRFSGSGSATEFTLTISSLQPEDFATFYCQQSYSVPFTFGPGTRLSSKR
notes: soluble Fab (sFab); heavy constant part carries His6 and myc tags; also called R0032-C01
Broadly, the Kd is the equilibrium constant for the complex coming apart. Read a low Kd as a tighter complex. Consider B2, for which the “IC50, IGF-II stimulated Ba/F3 cell proliferation (MTS)” value in experiment [5] turned out to be 2.27 µg/mL. Further, the “IC50, IGF-IIE stimulated Ba/F3 cell proliferation (MTS)” value in experiment [6] amounted to 5.74 µg/mL. Moreover, in [7], the “IGF-I stimulated Ba/F3 cell proliferation, sFab at 50 µg/ml” value was about 30 % inhibition. In addition, the equilibrium dissociation constant (Kd) in experiment [8] was determined as 0.93 nM; in experiment [9], 0.66 nM.

B3: M0080-G03 Fab (Fab, V domains shown)
VH: EVQLLESGGGLVQPGGSLRLSCAASGFTFSFYQMMWVRQAPGKGLEWVSSISPSGGRTYYADSVKGRFTISRDNSKNTLYLQMNSLRAEDTAVYYCAKDIGLGYCSSTSCYTGTPLDYWGQGTLVTVSS
VL: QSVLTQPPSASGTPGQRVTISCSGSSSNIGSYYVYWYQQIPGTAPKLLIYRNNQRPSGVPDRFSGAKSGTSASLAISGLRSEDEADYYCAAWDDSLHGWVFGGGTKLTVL
On to B3, for which the figures for the Kd in experiment [10] and in experiment [11] were 21.2 nM and 29.3 nM, respectively.

B4: M0033-E05 Fab (Fab, V domains shown)
VH: EVQLLESGGGLVQPGGSLRLSCAASGFTFSHYSMWWVRQAPGKGLEWVSYIGPSGGHTRYADSVKGRFTISRDNSKNTLYLQMNSLRAEDTAVYYCARGLYYYDSSSVTHAFDLWGQGTMVTVSS
VL: DIQMTQSPSSLSASVGDRVTISCRASQGITNYLVWFQQKPGKAPRLLIYDASTLESGVPSRFSGSGSGTDFTLTISSLQPEDFATYYCQQADGFPLTFGEGTKVEMKR
notes: soluble Fab (sFab); also called R0032-A05
Turning to B4, the results for the equilibrium dissociation constant (Kd) in [12] and in [9] were 5.5 nM and 0.87 nM, respectively.

B5: M0072-E03 Fab (Fab, V domains shown)
VH: EVQLLESGGGLVQPGGSLRLSCAASGFTFSEYEMSWVRQAPGKGLEWVSSIYSSGGWTKYTDSVKGRFTISRDNSKNTLYLQMNSLRAEDTAVYYCAKGVHYDSSGLPIDWYFDLWGRGTLVTVSS
VL: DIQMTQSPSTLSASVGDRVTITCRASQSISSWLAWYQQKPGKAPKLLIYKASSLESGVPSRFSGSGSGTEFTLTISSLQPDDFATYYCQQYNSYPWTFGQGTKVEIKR
notes: soluble Fab (sFab); also called R0032-C03
Turning to B5, the Kd stood at 0.3 nM in experiment [12]; 0.22 nM in [13]; 0.75 nM in [8]; 0.096 nM in [9]; 2.62 nM in [14]; 5.32 nM in [11]. The “IGF-I stimulated Ba/F3 cell proliferation, sFab at 50 µg/ml” value in experiment [7] was about 30 % inhibition.

B6: M0072-E03 IgG (parental) (antibody, V domains shown)
VH: EVQLLESGGGLVQPGGSLRLSCAASGFTFSEYEMSWVRQAPGKGLEWVSSIYSSGGWTKYTDSVKGRFTISRDNSKNTLYLQMNSLRAEDTAVYYCAKGVHYDSSGLPIDWYFDLWGRGTLVTVSS
VL: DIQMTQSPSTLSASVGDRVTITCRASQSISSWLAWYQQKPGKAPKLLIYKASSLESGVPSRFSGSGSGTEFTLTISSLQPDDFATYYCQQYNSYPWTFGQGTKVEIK
On to B6, for which the competition score came out at 4 score 0-5 in experiment [1], 3 score 0-5 in [2], 4 score 0-5 in experiment [3] and 3 score 0-5 in [4].

B7: M0073-C11 Fab (Fab, V domains shown)
VH: EVQLLESGGGLVQPGGSLRLSCAASGFTFSPYDMWWVRQAPGKGLEWVSSISSSGGITAYADSVKGRFTISRDNSKNTLYLQMNSLRAEDTAVYYCARAGYSSSWGYYYYGMDVWGQGTTVTVSS
VL: QSALTQPPSVSVSPGQTASITCSGDRLGDKYASWYQQKPGQSPVLVIYQDTKRPSGIPERFSGSNSGSTATLTISGTQAMDEADYYCQAWDSSTVVFGGGTKLTVL
Regarding B7, the Kd in [10] was 19.1 nM; in experiment [11], 20.2 nM.

B8: M0070-H08 IgG (parental) (antibody, V domains shown)
VH: EVQLLESGGGLVQPGGSLRLSCAASGFTFSRYWMIWVRQAPGKGLEWVSSIRSSGETKYADSVKGRFTISRDNSKNTLYLQMNSLRAEDTAVYYCARGPLSDYYDSSGYYFDAFDIWGQGTMVTVSS
VL: DIQMTQSPSSLSASAGDRVTITCRASQSISSYLNWYQQKPGKAPNLLIYTTSNLQGGVPSRFSGSGSGTDFTLTISSLQPEDFATYYCQQGYSFPLTFGGGTKVEIK
Regarding B8, the competition score in experiment [1] was found to be 3 score 0-5; in experiment [2], 2 score 0-5; in [3], 2 score 0-5; in experiment [4], 1 score 0-5.

B9: M0070-H08 Fab (Fab, V domains shown)
VH: EVQLLESGGGLVQPGGSLRLSCAASGFTFSRYWMIWVRQAPGKGLEWVSSIRSSGETKYADSVKGRFTISRDNSKNTLYLQMNSLRAEDTAVYYCARGPLSDYYDSSGYYFDAFDIWGQGTMVTVSS
VL: DIQMTQSPSSLSASAGDRVTITCRASQSISSYLNWYQQKPGKAPNLLIYTTSNLQGGVPSRFSGSGSGTDFTLTISSLQPEDFATYYCQQGYSFPLTFGGGTKVEIKR
notes: soluble Fab (sFab); also called R0032-A07
For the molecule B9, the dissociation constant Kd came out at 1.1 nM in experiment [12]; 0.39 nM in [13]; 3.3 nM in experiment [8]; 0.36 nM in experiment [9]; 3.24 nM in [14]; 4.83 nM in experiment [11].

B10: M0072-G06 Fab (Fab, V domains shown)
VH: EVQLLESGGGLVQPGGSLRLSCAASGFTFSEYVMWWVRQAPGKGLEWVSVISPSGGYTVYADSVKGRFTISRDNSKNTLYLQMNSLRAEDTAVYYCARDRGGATTLDYWGQGTLVTVSS
VL: DIQMTQSPSTLSASVGDRVTITCRASQTISSWLAWYQQKPGKAPKLMIYKAASLGSEVPSRFSGSGSGTEFTLTISSLQPEDFSTYYCQQYKTYPVTFGQGTRLEIKR
notes: soluble Fab (sFab); also called R0032-C05
For B10, the “IC50, IGF-II stimulated Ba/F3 cell proliferation (MTS)” value in experiment [5] stood at 8.7 µg/mL. Besides, the “IC50, IGF-IIE stimulated Ba/F3 cell proliferation (MTS)” value in [6] was determined as 2.5 µg/mL. Moreover, the Kd in experiment [12] came to 1.4 nM; in experiment [13], 0.89 nM; in [8], 0.58 nM; in experiment [9], 0.56 nM; in [14], 3.99 nM; in experiment [11] it was 6.36 nM. Besides, the “IGF-I stimulated Ba/F3 cell proliferation, sFab at 50 µg/ml” value in experiment [7] is about 30 % inhibition.

B11: M0072-G06 IgG (parental) (antibody, V domains shown)
VH: EVQLLESGGGLVQPGGSLRLSCAASGFTFSEYVMWWVRQAPGKGLEWVSVISPSGGYTVYADSVKGRFTISRDNSKNTLYLQMNSLRAEDTAVYYCARDRGGATTLDYWGQGTLVTVSS
VL: DIQMTQSPSTLSASVGDRVTITCRASQTISSWLAWYQQKPGKAPKLMIYKAASLGSEVPSRFSGSGSGTEFTLTISSLQPEDFSTYYCQQYKTYPVTFGQGTRLEIK
For the molecule B11, the competition score in experiment [1] was 2 score 0-5; in [2], 2 score 0-5; in experiment [3] it was 1 score 0-5; in [4], 1 score 0-5.
